Here are results for 11 molecules from patent US20130210709A1 (ANCHOR THERAPEUTICS, published 2013).

Like-named read-outs stand apart in the source and are kept apart here. Ends that are not written are not given here. * marks the point of attachment. Palmitoyl = CCCCCCCCCCCCCCCC(=O)*

What all share (assay): cell-based or functional assay
The target in experiment [1] is T1, CXCR4 receptor (human, UniProt P61073 1-352).
Experiment [2] has as its target T1, CXCR4 receptor. This is another data set of the same source.
For experiment [3], the target named is T1, CXCR4 receptor. The source holds these as a separate data set.

T1 sequence (P61073 whole entry): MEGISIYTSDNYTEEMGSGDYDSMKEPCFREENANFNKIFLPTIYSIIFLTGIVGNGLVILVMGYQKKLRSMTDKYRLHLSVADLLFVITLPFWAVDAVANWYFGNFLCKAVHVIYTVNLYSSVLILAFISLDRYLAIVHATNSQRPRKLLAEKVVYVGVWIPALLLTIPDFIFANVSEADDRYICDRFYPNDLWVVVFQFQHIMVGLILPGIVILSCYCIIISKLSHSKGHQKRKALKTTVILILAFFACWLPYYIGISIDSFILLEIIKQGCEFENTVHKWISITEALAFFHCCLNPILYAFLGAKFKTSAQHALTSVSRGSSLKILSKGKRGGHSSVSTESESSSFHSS

B1: CXCR4 i1 loop compound 135 (peptide)
peptide: Palmitoyl-MGYQKKARSMTDKYRL-NH2
SMILES: CCCCCCCCCCCCCCCC(=O)N[C@@H](CCSC)C(=O)NCC(=O)N[C@@H](Cc1ccc(O)cc1)C(=O)N[C@@H](CCC(N)=O)C(=O)N[C@@H](CCCCN)C(=O)N[C@@H](CCCCN)C(=O)N[C@@H](C)C(=O)N[C@@H](CCCNC(=N)N)C(=O)N[C@@H](CO)C(=O)N[C@@H](CCSC)C(=O)N[C@H](C(=O)N[C@@H](CC(=O)O)C(=O)N[C@@H](CCCCN)C(=O)N[C@@H](Cc1ccc(O)cc1)C(=O)N[C@@H](CCCNC(=N)N)C(=O)N[C@@H](CC(C)C)C(N)=O)[C@@H](C)O
In the case of B1, the “IC50 (nM), calcium flux, CCRF-CEM” value in the experiment with CXCR4 receptor [1] was determined as 175 nM.

B2: CXCR4 i1 loop compound 136 (peptide)
peptide: Palmitoyl-MGYQKKLASMTDKYRL-NH2
SMILES: CCCCCCCCCCCCCCCC(=O)N[C@@H](CCSC)C(=O)NCC(=O)N[C@@H](Cc1ccc(O)cc1)C(=O)N[C@@H](CCC(N)=O)C(=O)N[C@@H](CCCCN)C(=O)N[C@@H](CCCCN)C(=O)N[C@@H](CC(C)C)C(=O)N[C@@H](C)C(=O)N[C@@H](CO)C(=O)N[C@@H](CCSC)C(=O)N[C@H](C(=O)N[C@@H](CC(=O)O)C(=O)N[C@@H](CCCCN)C(=O)N[C@@H](Cc1ccc(O)cc1)C(=O)N[C@@H](CCCNC(=N)N)C(=O)N[C@@H](CC(C)C)C(N)=O)[C@@H](C)O
For B2, in the experiment with CXCR4 receptor [1], the “IC50 (nM), calcium flux, CCRF-CEM” value stood at 302 nM.

B3: CXCR4 i4 loop compound 110 (peptide)
peptide: Palmitoyl-GAKFKTSAQHALTSVSRGSSLKILSKGKRGGSCFH-NH2
SMILES: CCCCCCCCCCCCCCCC(=O)NCC(=O)N[C@@H](C)C(=O)N[C@@H](CCCCN)C(=O)N[C@@H](Cc1ccccc1)C(=O)N[C@@H](CCCCN)C(=O)N[C@H](C(=O)N[C@@H](CO)C(=O)N[C@@H](C)C(=O)N[C@@H](CCC(N)=O)C(=O)N[C@@H](Cc1c[nH]cn1)C(=O)N[C@@H](C)C(=O)N[C@@H](CC(C)C)C(=O)N[C@H](C(=O)N[C@@H](CO)C(=O)N[C@H](C(=O)N[C@@H](CO)C(=O)N[C@@H](CCCNC(=N)N)C(=O)NCC(=O)N[C@@H](CO)C(=O)N[C@@H](CO)C(=O)N[C@@H](CC(C)C)C(=O)N[C@@H](CCCCN)C(=O)N[C@H](C(=O)N[C@@H](CC(C)C)C(=O)N[C@@H](CO)C(=O)N[C@@H](CCCCN)C(=O)NCC(=O)N[C@@H](CCCCN)C(=O)N[C@@H](CCCNC(=N)N)C(=O)NCC(=O)NCC(=O)N[C@@H](CO)C(=O)N[C@@H](CS)C(=O)N[C@@H](Cc1ccccc1)C(=O)N[C@@H](Cc1c[nH]cn1)C(N)=O)[C@@H](C)CC)C(C)C)[C@@H](C)O)[C@@H](C)O
On to B3, for which, in the experiment with CXCR4 receptor [2], the “AUC (% of Vehicle), CHTX, CEM, 1.0 uM” value is 41 % of Vehicle; the “Max (% of Vehicle), CHTX, CEM, 1.0 uM” value is 42.1 % of Vehicle; the “Peak Ratio, CHTX, CEM, 1.0 uM” value worked out at 1.

B4: CXCR4 i4 loop compound 115 (peptide)
peptide: Palmitoyl-GAKFKTSAQHALTSVSRGSSLK-NH2
SMILES: CCCCCCCCCCCCCCCC(=O)NCC(=O)N[C@@H](C)C(=O)N[C@@H](CCCCN)C(=O)N[C@@H](Cc1ccccc1)C(=O)N[C@@H](CCCCN)C(=O)N[C@H](C(=O)N[C@@H](CO)C(=O)N[C@@H](C)C(=O)N[C@@H](CCC(N)=O)C(=O)N[C@@H](Cc1c[nH]cn1)C(=O)N[C@@H](C)C(=O)N[C@@H](CC(C)C)C(=O)N[C@H](C(=O)N[C@@H](CO)C(=O)N[C@H](C(=O)N[C@@H](CO)C(=O)N[C@@H](CCCNC(=N)N)C(=O)NCC(=O)N[C@@H](CO)C(=O)N[C@@H](CO)C(=O)N[C@@H](CC(C)C)C(=O)N[C@@H](CCCCN)C(N)=O)C(C)C)[C@@H](C)O)[C@@H](C)O
With B4, in the experiment with CXCR4 receptor [2], the “AUC (% of Vehicle), CHTX, CEM, 1.0 uM” value is 77.5 % of Vehicle; the “Max (% of Vehicle), CHTX, CEM, 1.0 uM” value is 92.1 % of Vehicle; the “Peak Ratio, CHTX, CEM, 1.0 uM” value amounted to 1.

B5: CXCR4 i1 loop compound 134 (peptide)
peptide: Palmitoyl-MGYQKALRSMTDKYRL-NH2
SMILES: CCCCCCCCCCCCCCCC(=O)N[C@@H](CCSC)C(=O)NCC(=O)N[C@@H](Cc1ccc(O)cc1)C(=O)N[C@@H](CCC(N)=O)C(=O)N[C@@H](CCCCN)C(=O)N[C@@H](C)C(=O)N[C@@H](CC(C)C)C(=O)N[C@@H](CCCNC(=N)N)C(=O)N[C@@H](CO)C(=O)N[C@@H](CCSC)C(=O)N[C@H](C(=O)N[C@@H](CC(=O)O)C(=O)N[C@@H](CCCCN)C(=O)N[C@@H](Cc1ccc(O)cc1)C(=O)N[C@@H](CCCNC(=N)N)C(=O)N[C@@H](CC(C)C)C(N)=O)[C@@H](C)O
For B5, in the experiment with CXCR4 receptor [1], the “IC50 (nM), calcium flux, CCRF-CEM” value was found to be 250 nM.

B6: CXCR4 i4 loop compound 112 (peptide)
peptide: Palmitoyl-GAKFKTSAQHALTSVSRGSSLKILSGGK-NH2
SMILES: CCCCCCCCCCCCCCCC(=O)NCC(=O)N[C@@H](C)C(=O)N[C@@H](CCCCN)C(=O)N[C@@H](Cc1ccccc1)C(=O)N[C@@H](CCCCN)C(=O)N[C@H](C(=O)N[C@@H](CO)C(=O)N[C@@H](C)C(=O)N[C@@H](CCC(N)=O)C(=O)N[C@@H](Cc1c[nH]cn1)C(=O)N[C@@H](C)C(=O)N[C@@H](CC(C)C)C(=O)N[C@H](C(=O)N[C@@H](CO)C(=O)N[C@H](C(=O)N[C@@H](CO)C(=O)N[C@@H](CCCNC(=N)N)C(=O)NCC(=O)N[C@@H](CO)C(=O)N[C@@H](CO)C(=O)N[C@@H](CC(C)C)C(=O)N[C@@H](CCCCN)C(=O)N[C@H](C(=O)N[C@@H](CC(C)C)C(=O)N[C@@H](CO)C(=O)NCC(=O)NCC(=O)N[C@@H](CCCCN)C(N)=O)[C@@H](C)CC)C(C)C)[C@@H](C)O)[C@@H](C)O
For the molecule B6, in the experiment with CXCR4 receptor [2], the “AUC (% of Vehicle), CHTX, CEM, 1.0 uM” value is 48.9 % of Vehicle; the “Max (% of Vehicle), CHTX, CEM, 1.0 uM” value was 54.7 % of Vehicle; the “Peak Ratio, CHTX, CEM, 1.0 uM” value worked out at 0.2.

B7: CXCR4 i4 loop compound 116 (peptide)
peptide: Palmitoyl-GAKFKTSAQHALTSVR-NH2
SMILES: CCCCCCCCCCCCCCCC(=O)NCC(=O)N[C@@H](C)C(=O)N[C@@H](CCCCN)C(=O)N[C@@H](Cc1ccccc1)C(=O)N[C@@H](CCCCN)C(=O)N[C@H](C(=O)N[C@@H](CO)C(=O)N[C@@H](C)C(=O)N[C@@H](CCC(N)=O)C(=O)N[C@@H](Cc1c[nH]cn1)C(=O)N[C@@H](C)C(=O)N[C@@H](CC(C)C)C(=O)N[C@H](C(=O)N[C@@H](CO)C(=O)N[C@H](C(=O)N[C@@H](CCCNC(=N)N)C(N)=O)C(C)C)[C@@H](C)O)[C@@H](C)O
Turning to B7, in the experiment with CXCR4 receptor [2], the “AUC (% of Vehicle), CHTX, CEM, 1.0 uM” value was 65.3 % of Vehicle; the “Max (% of Vehicle), CHTX, CEM, 1.0 uM” value was 80.5 % of Vehicle; the “Peak Ratio, CHTX, CEM, 1.0 uM” value was found to be 1.

B8: CXCR4 i4 loop compound 109 (peptide)
peptide: Palmitoyl-GAKFKTSAQHALTSVSRGSSLKILSKGKRGGHSSVST-NH2
SMILES: CCCCCCCCCCCCCCCC(=O)NCC(=O)N[C@@H](C)C(=O)N[C@@H](CCCCN)C(=O)N[C@@H](Cc1ccccc1)C(=O)N[C@@H](CCCCN)C(=O)N[C@H](C(=O)N[C@@H](CO)C(=O)N[C@@H](C)C(=O)N[C@@H](CCC(N)=O)C(=O)N[C@@H](Cc1c[nH]cn1)C(=O)N[C@@H](C)C(=O)N[C@@H](CC(C)C)C(=O)N[C@H](C(=O)N[C@@H](CO)C(=O)N[C@H](C(=O)N[C@@H](CO)C(=O)N[C@@H](CCCNC(=N)N)C(=O)NCC(=O)N[C@@H](CO)C(=O)N[C@@H](CO)C(=O)N[C@@H](CC(C)C)C(=O)N[C@@H](CCCCN)C(=O)N[C@H](C(=O)N[C@@H](CC(C)C)C(=O)N[C@@H](CO)C(=O)N[C@@H](CCCCN)C(=O)NCC(=O)N[C@@H](CCCCN)C(=O)N[C@@H](CCCNC(=N)N)C(=O)NCC(=O)NCC(=O)N[C@@H](Cc1c[nH]cn1)C(=O)N[C@@H](CO)C(=O)N[C@@H](CO)C(=O)N[C@H](C(=O)N[C@@H](CO)C(=O)N[C@H](C(N)=O)[C@@H](C)O)C(C)C)[C@@H](C)CC)C(C)C)[C@@H](C)O)[C@@H](C)O
As to B8, in the experiment with CXCR4 receptor [2], the “AUC (% of Vehicle), CHTX, CEM, 1.0 uM” value is 49.3 % of Vehicle; the “Max (% of Vehicle), CHTX, CEM, 1.0 uM” value was 49.8 % of Vehicle; the “Peak Ratio, CHTX, CEM, 1.0 uM” value was 0.04.

B9: Compound No. 38 (Pal-MGYQKKLRSMTDKYRL-amide) (peptide)
peptide: Palmitoyl-MGYQKKLRSMTDKYRL-NH2
SMILES: CCCCCCCCCCCCCCCC(=O)N[C@@H](CCSC)C(=O)NCC(=O)N[C@@H](Cc1ccc(O)cc1)C(=O)N[C@@H](CCC(N)=O)C(=O)N[C@@H](CCCCN)C(=O)N[C@@H](CCCCN)C(=O)N[C@@H](CC(C)C)C(=O)N[C@@H](CCCNC(=N)N)C(=O)N[C@@H](CO)C(=O)N[C@@H](CCSC)C(=O)N[C@H](C(=O)N[C@@H](CC(=O)O)C(=O)N[C@@H](CCCCN)C(=O)N[C@@H](Cc1ccc(O)cc1)C(=O)N[C@@H](CCCNC(=N)N)C(=O)N[C@@H](CC(C)C)C(N)=O)[C@@H](C)O
Regarding B9, in the experiment with CXCR4 receptor [1], the “IC50 (nM), calcium flux, CCRF-CEM” value worked out at 98 nM. Besides, in the experiment with CXCR4 receptor [3], the “AUC (% of), CHTX, SUP B-15, 1.0 uM” value worked out at 32.4%; the “Max (% of), CHTX, SUP B-15, 1.0 uM” value came out at 49.6%; the “Peak Ratio, CHTX, CEM, 1.0 uM” value turned out to be 0.2; the “Peak Ratio, CHTX, SUP B-15, 1.0 uM” value is 0.2.

B10: CXCR4 i4 loop compound 108 (peptide)
peptide: GAKFKTSAQHALTSVSRGSSLKILSKGKRG-NH2
modifications: not fully specified (N-terminus)
With B10, in the experiment with CXCR4 receptor [2], the “AUC (% of Vehicle), CHTX, CEM, 1.0 uM” value was 89.5 % of Vehicle; the “Max (% of Vehicle), CHTX, CEM, 1.0 uM” value was 83.9 % of Vehicle; the “Peak Ratio, CHTX, CEM, 1.0 uM” value is 5.

B11: CXCR4 i4 loop compound 114 (peptide)
peptide: Palmitoyl-GAKFKTSAQHALTSVSRGSSLKILSK-NH2
SMILES: CCCCCCCCCCCCCCCC(=O)NCC(=O)N[C@@H](C)C(=O)N[C@@H](CCCCN)C(=O)N[C@@H](Cc1ccccc1)C(=O)N[C@@H](CCCCN)C(=O)N[C@H](C(=O)N[C@@H](CO)C(=O)N[C@@H](C)C(=O)N[C@@H](CCC(N)=O)C(=O)N[C@@H](Cc1c[nH]cn1)C(=O)N[C@@H](C)C(=O)N[C@@H](CC(C)C)C(=O)N[C@H](C(=O)N[C@@H](CO)C(=O)N[C@H](C(=O)N[C@@H](CO)C(=O)N[C@@H](CCCNC(=N)N)C(=O)NCC(=O)N[C@@H](CO)C(=O)N[C@@H](CO)C(=O)N[C@@H](CC(C)C)C(=O)N[C@@H](CCCCN)C(=O)N[C@H](C(=O)N[C@@H](CC(C)C)C(=O)N[C@@H](CO)C(=O)N[C@@H](CCCCN)C(N)=O)[C@@H](C)CC)C(C)C)[C@@H](C)O)[C@@H](C)O
As for B11, in the experiment with CXCR4 receptor [2], the “AUC (% of Vehicle), CHTX, CEM, 1.0 uM” value is 34.2 % of Vehicle; the “Max (% of Vehicle), CHTX, CEM, 1.0 uM” value was 63.1 % of Vehicle; the “Peak Ratio, CHTX, CEM, 1.0 uM” value was 1.
